Reference: patent US20220372164A1 (CITY OF HOPE, published 2022)

Assays:
truncated EGFR (EGFRt) [1] = molecular target: T1, truncated EGFR (EGFRt) (human, UniProt P00533 334-668); assay: flow cytometry, biotinylated soluble FcγR + SA-PE on T cells
T1 construct: Expressed alone on T cells as the control without a CAR; also called huEGFRt; EGFRt marker
Protocol: Antibodies and Flow Cytometry. Fluorochrome-conjugated isotype controls, anti-CD3, anti-CD4, anti-CD8, anti-CD45 and streptavidin were obtained from BD Biosciences (San Jose, Calif.). Biotinylated anti-Fc was purchased from Jackson ImmunoResearch Laboratories, Inc. (West Grove, Pa.). Generation of biotinylated-cetuximab was previously described (Wang et al. 2011a). […] The percentage of immunofluorescent cells were analyzed by a FACScalibur system (BD Biosciences), and the percentage of cells in a region of analysis were calculated using FCS Express V3 (De Novo Software, CA, USA).
To determine the efficacy of the different mutations/deletion in the CAR to affect FcR binding, flow cytometric analysis was performed using various human and murine biotinylated soluble FcγRs, and PE-streptavidin (SA-PE) to detect the binding of the FcγRs to the different cell populations.

truncated EGFR (EGFRt) [2] = molecular target: T1, truncated EGFR (EGFRt); assay: flow cytometry, titration of biotinylated soluble human FcγR1 + SA-PE on T cells

Row | Binder | binding result (truncated EGFR (EGFRt) [1]) | binding result (truncated EGFR (EGFRt) [2])
1 | biotinylated soluble human FcγR2a (receptor, UniProt P12318 34-218, looked up, biotinylated, Bought reagent; also called huFcγR2a; Hu R2a) QAAAPPKAVLKLEPPWINVLQEDSVTLTCQGARSPESDSIQWFHNGNLIPTHTQPSYRFKANNNDSGEYTCQTGQTSLSDPVHLTVLSEWLVLQTPHLEFQEGETIMLRCHSWKDKPLVKVTFFQNGKSQKFSHLDPTFSIPQANHSHSGDYHCTGNIGYTLFSSKPVTITVQVPSMGSSSPMGI | no binding | 
2 | biotinylated soluble murine FcγR1 (receptor, UniProt P26151 25-297, looked up, biotinylated, Bought reagent; also called muFcγR1; Mu FcγR1) EVVNATKAVITLQPPWVSIFQKENVTLWCEGPHLPGDSSTQWFINGTAVQISTPSYSIPEASFQDSGEYRCQIGSSMPSDPVQLQIHNDWLLLQASRRVLTEGEPLALRCHGWKNKLVYNVVFYRNGKSFQFSSDSEVAILKTNLSHSGIYHCSGTGRHRYTSAGVSITVKELFTTPVLRASVSSPFPEGSLVTLNCETNLLLQRPGLQLHFSFYVGSKILEYRNTSSEYHIARAEREDAGFYWCEVATEDSSVLKRSPELELQVLGPQSSAP | no binding | 
3 | biotinylated soluble murine FcγR2b (receptor, UniProt P08101 30-207, looked up, biotinylated, Bought reagent; also called muFcγR2b; Mu R2b) THDLPKAVVKLEPPWIQVLKEDTVTLTCEGTHNPGNSSTQWFHNGRSIRSQVQASYTFKATVNDSGEYRCQMEQTRLSDPVDLGVISDWLLLQTPQLVFLEGETITLRCHSWRNKLLNRISFFHNEKSVRYHHYSSNFSIPKANHSHSGDYYCKGSLGRTLHQSKPVTITVQGPKSSR | no binding | 

Next, values leading:

Row | binding result (truncated EGFR (EGFRt) [1]) | binding result (truncated EGFR (EGFRt) [2]) | Binder
4 | no binding |  | biotinylated soluble human FcγR2b (receptor, UniProt P31994 43-217, looked up, biotinylated, Bought reagent; also called huFcγR2b; Hu R2b) TPAAPPKAVLKLEPQWINVLQEDSVTLTCRGTHSPESDSIQWFHNGNLIPTHTQPSYRFKANNNDSGEYTCQTGQTSLSDPVHLTVLSEWLVLQTPHLEFQEGETIVLRCHSWKDKPLVKVTFFQNGKSKKFSRSDPNFSIPQANHSHSGDYHCTGNIGYTLYSSKPVTITVQAP
5 |  | no binding | biotinylated soluble human Fc gamma receptor 1 (receptor, UniProt P12314 16-288, looked up, biotinylated, Bought reagent; also called huFcγR1; human FcγR1) QVDTTKAVITLQPPWVSVFQEETVTLHCEVLHLPGSSSTQWFLNGTATQTSTPSYRITSASVNDSGEYRCQRGLSGRSDPIQLEIHRGWLLLQVSSRVFTEGEPLALRCHAWKDKLVYNVLYYRNGKAFKFFHWNSNLTILKTNISHNGTYHCSGMGKHRYTSAGISVTVKELFPAPVLNASVTSPLLEGNLVTLSCETKLLLQRPGLQLYFSFYMGSKTLRGRNTSSEYQILTARREDSGLYWCEAATEDGNVLKRSPELELQVLGLQLPTP
